{"source": "patent US20250381307A1", "about": "“RETRO-AAV AND USE IN TREATING NEURODEGENERATIVE DISEASES” (priority 2023, published 2025)", "molecules": {"B1": {"name": "AAV8R12: AAV8R capsid mutant V183E + N411S (SEQ ID NO: 13; SEQ ID NO: 59) (protein)", "chain": "MAADGYLPDWLEDNLSEGIREWWALKPGAPKPKANQQKQDDGRGLVLPGYKYLGPFNGLDKGEPVNAADAAALEHDKAYDQQLQAGDNPYLRYNHADAEFQERLQEDTSFGGNLGRAVFQAKKRVLEPLGLVEEGAKTAPGKKRPVEPSPQRSPDSSTGIGKKGQQPARKRLNFGQTGDSESEPDPQPLGEPPAAPSGVGPNTMAAGGGAPMADNNEGADGVGSSSGNWHCDSTWLGDRVITTSTRTWALPTYNNHLYKQISNGTSGGATNDNTYFGYSTPWGYFDFNRFHCHFSPRDWQRLINNNWGFRPKRLSFKLFNIQVKEVTQNEGTKTIANNLTSTIQVFTDSEYQLPYVLGSAHQGCLPPFPADVFMIPQYGYLTLNDGSQAVGRSSFYCLEYFPSQMLRTGNSFQFTYTFEDVPFHSSYAHSQSLDRLMNPLIDQYLYYLSRTQTTGGTANTQTLGFSQGGPNTMANQAKNWLPGPCYRQQRVSTTTGQNNNSNFAWTAGTKYHLNGRNSLANPGIAMATHKDDEERFFPSNGILIFGKQNAARDNADYSDVMLTSEEEIKTTNPVATEEYGIVADNLQRGNLADQDYTKTARQAATADVNSQGALPGMVWQNRDVYLQGPIWAKIPHTDGNFHPSPLMGGFGLKHPPPQILIKNTPVPADPPTTFNQSKLNSFITQYSTGQVSVEIEWELQKENSKRWNPEIQYTSNYYKSINVDFAVNTEGVYSEPRPIGTRYLTRN"}, "B2": {"name": "AAV8R: AAV8 capsid with N385D, insertion of SEQ ID NO: 31 at position 588 and TS to IN mutation (SEQ ID NO: 1) (protein)", "chain": "MAADGYLPDWLEDNLSEGIREWWALKPGAPKPKANQQKQDDGRGLVLPGYKYLGPFNGLDKGEPVNAADAAALEHDKAYDQQLQAGDNPYLRYNHADAEFQERLQEDTSFGGNLGRAVFQAKKRVLEPLGLVEEGAKTAPGKKRPVEPSPQRSPDSSTGIGKKGQQPARKRLNFGQTGDSESVPDPQPLGEPPAAPSGVGPNTMAAGGGAPMADNNEGADGVGSSSGNWHCDSTWLGDRVITTSTRTWALPTYNNHLYKQISNGTSGGATNDNTYFGYSTPWGYFDFNRFHCHFSPRDWQRLINNNWGFRPKRLSFKLFNIQVKEVTQNEGTKTIANNLTSTIQVFTDSEYQLPYVLGSAHQGCLPPFPADVFMIPQYGYLTLNDGSQAVGRSSFYCLEYFPSQMLRTGNNFQFTYTFEDVPFHSSYAHSQSLDRLMNPLIDQYLYYLSRTQTTGGTANTQTLGFSQGGPNTMANQAKNWLPGPCYRQQRVSTTTGQNNNSNFAWTAGTKYHLNGRNSLANPGIAMATHKDDEERFFPSNGILIFGKQNAARDNADYSDVMLTSEEEIKTTNPVATEEYGIVADNLQRGNLADQDYTKTARQAATADVNSQGALPGMVWQNRDVYLQGPIWAKIPHTDGNFHPSPLMGGFGLKHPPPQILIKNTPVPADPPTTFNQSKLNSFITQYSTGQVSVEIEWELQKENSKRWNPEIQYTSNYYKSINVDFAVNTEGVYSEPRPIGTRYLTRNL"}, "B3": {"name": "G88P7: 896-bp shortened derivative of G88P2 promoter (SEQ ID NO: 46) (nucleic acid, listed as Homo sapiens)", "DNA": "ATGCCAAGCGTGGAAAGGCTGTCTTTTCCCTGGATGATGTATAACTAAGCAGGAGAGAGCTTCGAGTGGGTTCACCACATCAGCCACCACTCCTGCTTCTGAGCACAGGGTGCTCTCCTCTTGAGCTCAGCTTCTGCTTTTGCAGCCAAGCATTCTTGCTGCTGCTGCCTGCCTGCCCACCCGCCTGGGCTTGCAGCCCGCCACTTTACTTTCTCCAGCCCTGATACCAGCTGAGAAGTCTCCCTGCAGCTGCTAGTTCCTGCCCAGGACCATGTGTGTGGATGCTGCTTGGGAGAAGCGGGCACTTGCTCCTGGCACTGATCCCAGCTGAGTTTCTCCTGTTGATTTCTGGACCACTGATGCTGTTGCTGAGGAGGTATTTCCCGGCATCCCTCCCCCTGAGACACCGGCTAAGGACCAGCCTAAACGCAAGGTAACCTTCACCTCTTTCCCATGGGATTTTCCCCAGCTGGGATATCTCTGCTTTCTCCTGGAACTAGGTCCTCCAGCTGGCAACATATCTCTCTCTCTCTCTCTCTCTCTCTCTCTCTCTCTCTCTCTGTGTGTGTGTGTGTGTGTTGGGGGAGAAGAGGAGACTGTTTTAGGTATTGCTCTGTCCTAGGGCTTCCCCGATACCTGCTGAATCCAATGCAAAGTGGCCTTTCCCCTGGCTCTGGAGACATTTCCGAGGCAGGCACCTGTCATCTGCCACCCCCGTCCTCCTCCTCGAGCTCCCTTTCTCCCCCTCCCCCAGCCCATTATTCTGCTTCAGCCTTTTGTGTCAGTGGCAGAGGGCTGAAGGGATGTCTTTGCCCTTCTGGCAGGCAGGACAGTGTCAGGATGGACCGCGCTGCCAGAAGCCGACGCTAGCGAGGGAGGTGTGAAGAGTTGGCCAG"}}, "key": {"[1]": {"system": "striatonigral projection neurons (striatal MSNs)", "assay": "Retrograde labeling of striatal MSNs after AAV injection into the SNr (EYFP+ cell counting)", "assay_type": "in vivo, mice", "settings": "for labeled striatonigral projection neurons (FIG. 2C): wild type mice, n=3, mean±SEM", "excerpt": "(§1) Brain profiles of two epigenetic marks for enhancers and promoters, monomethylation of histone H3 lysine 4 (H3K4me1) and acetylation of histone H3 lysine 27 (H3K27ac) were checked and approximately 2 kilobase-long sequences around the transcriptional start site (TSS) that have high levels of H3K4me1 and/or H3K27ac were identified in mouse brain. Homologous sequences at equivalent positions of the human genome were then cloned onto an AAV backbone, and the activity of the homologous sequences in directing reporter expression was tested in mice after injections of AAVs into the SNr (FIG. 3A-C, TABLE 3).\n(§2) Mice were anesthetized with sodium pentobarbital (Nembutal; 80 mg/kg, i.p.), and then placed into a stereotaxic device (KOPF). Eye cream was applied on both corneas to avoid dehydration. The skull above the targeted areas was thinned with a dental drill and carefully removed. Injections were conducted with a 10 μL syringe connected to a 33-Gauge needle (Neuros; Hamilton), using a microsyringe pump (Legato 130, KD Scientific). A total volume of 200 nL virus was injected into the SNr at a speed of 20 nL/min. The coordinates for the SNr were 3.4 mm posterior, 1.3 mm lateral, 4.8 mm ventral to the bregma.\n(§3) Images were acquired using a confocal microscope (Carl Zeiss, LSM880) and an Axiolmager.Z1 microscope with apotome (Carl Zeiss). Brain structures were identified microscopically and in digital photos using a mouse brain atlas. To analyze the number of EYFP+ cells in the striatum, slices from rostral to caudal striatum were used. Every sixth section was analyzed, and numbers of EYFP+ cells were multiplied by six to acquire the approximate total number and mean number of cells per animal. Images were processed using ImageJ (NIH, USA), and final quantifications were independently performed manually by two blinded experimenters."}, "[2]": {"system": "MSNs in nucleus accumbens", "assay": "Retrograde labeling of accumbal MSNs after delivery into ventral pallidum or lateral hypothalamus", "assay_type": "in vivo, mouse", "settings": "stereotaxic delivery into ventral pallidum or lateral hypothalamus"}, "substantia nigra": {"system": "substantia nigra", "assay": "Promoter activity level in substantia nigra after AAV injection into the SNr", "assay_type": "in vivo, mice", "settings": "numbers of YFP-expressing neurons per animal", "excerpt": "as §1, §2, §3"}}, "data": [{"molecule": "B1", "values": [{"measurement": "Labeling Efficiency in Striatonigral Pathway", "setting": "[1]; AAV8R capsid mutants, numbers of labeled neurons per animal", "value": "+++ (10k-25k)"}, {"measurement": "labeled striatonigral projection neurons (FIG. 2C)", "setting": "[1]; SNr injection", "value": "16026±1654"}, {"measurement": "times EYFP positive / labeled MSNs compared to rAAV2-retro", "setting": "[1]; after nigral delivery, hSyn-EYFP", "value": "7.72±0.78", "unit": "times"}, {"measurement": "labeling of MSNs in nucleus accumbens", "setting": "[2]", "value": "robust labeling"}]}, {"molecule": "B2", "values": [{"measurement": "labeled striatonigral projection neurons (FIG. 2C)", "setting": "[1]; SNr injection", "value": "10092±463.9"}, {"measurement": "labeling of MSNs in nucleus accumbens", "setting": "[2]", "value": "robust labeling"}]}, {"molecule": "B3", "values": [{"measurement": "reporter-labeled MSNs by promoter (FIG. 4B)", "setting": "[1]; SNr injection, n=3 mice, mean±SEM", "value": "39460±7281"}, {"measurement": "Activity Level STR", "setting": "[1]; striatum, numbers of YFP-expressing neurons per animal", "value": "++++ (>25k)"}, {"measurement": "labeled MSNs per mouse", "setting": "[1]; viruses expressing EYFP, injection into the SNr (FIG. 4B)", "value": "3.95±0.73 ×104 MSNs per mouse"}, {"measurement": "Activity Level SN", "setting": "substantia nigra", "value": "+ (<5k)"}]}]}
